# Laboratory results published in patent publication US8993717B2, “Gadd45beta targeting agents” (Imperial Innovations Limited, priority 2009, dated 2015).
# Read-outs that look alike come from different tables or passages of the source. Square brackets hold non-standard residues; d marks the D form. Primed or numbered codes have the meaning given here. Peptide text beside a SMILES is read from it. * marks the point of attachment. Fmoc = O=C(OCC1c2ccccc2-c2ccccc21)*; Myristoyl = CCCCCCCCCCCCCC(=O)*; ClZ = O=C(OCc1ccccc1Cl)*; OMe′ = Asp methyl ester; Cbz = O=C(OCc1ccccc1)*; βAla = NCCC(=O)O
# Molecular target: T1, Gadd45β/MKK7 interaction (Homo sapiens, UniProt O14733)
# T1 construct: The GST-fused full-length kinase was coated for 16 h at 4° C., at a concentration of 42 nM; made in house
# T1 sequence (O14733 1-419): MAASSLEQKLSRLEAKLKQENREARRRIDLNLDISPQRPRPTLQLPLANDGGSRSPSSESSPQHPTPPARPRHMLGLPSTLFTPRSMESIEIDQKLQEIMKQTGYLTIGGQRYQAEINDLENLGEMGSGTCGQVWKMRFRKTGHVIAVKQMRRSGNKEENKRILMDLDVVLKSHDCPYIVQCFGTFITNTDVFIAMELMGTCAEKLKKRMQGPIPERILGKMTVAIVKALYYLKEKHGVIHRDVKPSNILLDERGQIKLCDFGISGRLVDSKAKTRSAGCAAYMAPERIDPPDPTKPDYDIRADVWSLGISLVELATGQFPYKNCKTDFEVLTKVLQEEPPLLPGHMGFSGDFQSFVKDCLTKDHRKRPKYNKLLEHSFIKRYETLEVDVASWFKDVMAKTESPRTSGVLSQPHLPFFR
# Test: ELISA competition assay of biotin-hGadd45β binding to coated GST-MKK7
# Method: To evaluate the inhibitory properties of peptides, ELISA-based assays were performed. In these assays, a fusion protein of glutathione S-transferase (GST) and mitogen-activated protein kinase kinase 7 (MKK7) was coated onto wells of a 96-well plate, while biotinylated-hGadd45β was used in solution. hGadd45β was biotinylated using an EZ Link NHS-LC-biotin kit (Pierce, Rockford, Ill.), according to Tornatore et al. (Tornatore L., et al. (2008). J Mol Biol; 378:97-111).
# Firstly, the association between Gadd45β and MKK7 was investigated by ELISA assays as also reported in Tornatore et al. (Tornatore L., et al. (2008). J Mol Biol; 378:97-111). The GST-fused full-length kinase was coated for 16 h at 4° C., at a concentration of 42 nM in buffer A (25 mM Tris pH 7.5, 150 mM NaCl, 1 mM DTT and 1 mM EDTA) into wells of a 96-well microliter plate. Some wells were filled with buffer alone and were used as blanks. After incubation for 16 h at 4° C., the solutions were removed and the wells were filled with 350 μL of a 1% (w/v) solution of NFDM (Non Fat Dry Milk) in PBS (phosphate buffered saline). The plate was incubated for 1 h at 37° C. in the dark. After washing with buffer T-PBS (PBS with 0.004% (v/v) Tween detergent), the wells were filled with 100 μL of biotinylated-hGadd45β at concentrations ranging from 8.4 nM to 168 nM. Each data point was performed in triplicate. Following incubation for 1 hr in the dark at 37° C. the solutions were removed and the wells were again washed with T-PBS. Then 100 μL of a 1:10,000 dilution of horseradish peroxidase-conjugated streptavidin dissolved in buffer was added to each well and the plate incubated for 1 hr at 37° C. in the dark. After removal of the enzyme solution and washing, 100 μL of the chromogenic substrate o-phenylendiamine (0.4 mg/mL in 50 mM sodium phosphate-citrate buffer, containing 0.4 mg/mL of urea in hydrogen peroxide) was added and the colour was allowed to develop in the dark for 5 min. The reaction was stopped by adding 50 μL of 2.5 M H2SO4. The absorbance at 490 nm was measured in all wells and the values were averaged after subtracting the corresponding blanks. Bound protein was then detected as described above. The molar concentration of biotinylated-hGadd45β at which the half-maximal ELISA signal is detected corresponds to the dissociation constant (KD) (Friguet B, Chaffotte A F, Djavadi-Ohaniance L, Goldberg M E. J Immunol Methods. 1985 Mar. 18; 77 (2):305-19). Binding competition assays were performed by coating GST-MKK7 at 42 nM as described, a concentration of biotinylated-hGadd45β of 21 nM (pre-saturation conditions 1:0.5 mol/mol ratio) and, in a first test, using competitors at 21 nM. The binding of biotinylated hGadd45β to GST-MKK7 was analyzed in the presence of increasing amounts of competitor peptide (concentrations ranging from 0.01 nM to 100 nM), and the values obtained with the competitor were expressed as the percentage of the binding detected in the absence of competitor. […] According to the convention adopted in the table “L-Xaa” and “D-Xaa” refer to the L and D forms of amino acid Xaa.
# A simplified combinatorial peptide library (Marasco et al. 2008, Curr. Protein Pept. Sci. 9:447-67) was screened for antagonists of the Gadd45β/MKK7 interaction. This library contained a total of 12^4=20,736 different tetrapeptides formed by combinations of the following amino acid residues Gln (Q), Ser (S), Arg (R), Ala (A), Tyr (Y), Pro (P), Met (M), Cys (C), Phe (F), Leu (L), His (H), Asp (D), and was iteratively deconvoluted in four steps by ELISA competition assays using at each step coated MKK7 (42 nM), soluble-biotin-hGadd45β (21 nM) and each of the 12 sub-libraries (42 nM).
# [1] = Table V, FIG. 3C, read-out: IC50 ELISA
# [2] = Table II, modified pure peptides
# [3] = Table I, initial Elisa screening, coated MKK7 42 nM, biotin-hGadd45β 21 nM, competitor 21 nM, sub-libraries 42 nM
Compound,"% Inhibition of Gadd45β-MKK7 binding (Table III, modified peptides) [%]",% Inhibition of Gadd45β-MKK7 binding [2] [%],further results
"NC(=O)CC[C@@H](NC(=O)[C@@H](Cc1c[nH]cn1)NC(=O)[C@@H](CC(=O)O)NC(=O)[C@@H](Cc1ccc(O)cc1)NC(=O)[C@@H](Cc1ccc(O)cc1)NC(=O)OCc1ccccc1)C(N)=O [Compound 33, Z-Tyr-Tyr-Asp-His Gln-NH2] (Cbz-[dY][dY][dD][dH][dQ]-NH2)",,,IC50 [1]: > 10 nM
Ac-YERA-NH2,28,,
Ac-YDKW-NH2,,23,
Ac-WEKF-NH2,,65,
Z-YD(OMe)HQ-NH2 (Cbz-YD(OMe′)HQ-NH2),3,,
"N=C(N)NCCC[C@@H](NC(=O)[C@@H](CCC(=O)O)NC(=O)[C@@H](Cc1ccc(O)cc1)NC(=O)[C@@H](Cc1ccc(O)cc1)NC(=O)OCc1ccccc1)C(=O)N[C@H](Cc1ccccc1)C(N)=O [Compound 22, Z-Tyr-Tyr-Glu-Arg-Phe-NH2] (Cbz-[dY][dY][dE][dR][dF]-NH2)",,,IC50 [1]: > 5 nM
Ac-YEPF-NH2,13,,
Ac-YDKF-NH2,,35,
Ac-WDRF-NH2,,46,
Ac-YEHF-NH2,23,52,
Ac-WDKF-NH2,,26,
Fmoc(βAla)2-YDHR-NH2 ({Fmoc-βAla-βAla}-YDHR-NH2; SMILES N=C(N)NCCC[C@H](NC(=O)[C@H](Cc1c[nH]cn1)NC(=O)[C@H](CC(=O)O)NC(=O)[C@H](Cc1ccc(O)cc1)NC(=O)CCNC(=O)CCNC(=O)OCC1c2ccccc2-c2ccccc21)C(N)=O),,,% Inhibition of Gadd45β-MKK7 binding [3]: 2%
"N=C(N)NCCC[C@@H](NC(=O)[C@@H](Cc1ccc(O)cc1)NC(=O)OCc1ccccc1)C(=O)N[C@H](Cc1ccccc1)C(N)=O [Compound 19, Z-Tyr-Arg-Phe-NH2] (Cbz-[dY]-[dR]-[dF]-NH2)",,,IC50 (read-out: IC50s in vitro): 0.1 nM
2CI-Z-YDHQ-NH2 (ClZ-YDHQ-NH2),40,,
Ac-WDRW-NH2,,93,
Ac-WDHF-NH2,,28,
Ac-YDHFLys(Z)-NH2 (Ac-YDHFK(Cbz)-NH2; SMILES CC(=O)N[C@@H](Cc1ccc(O)cc1)C(=O)N[C@@H](CC(=O)O)C(=O)N[C@@H](Cc1c[nH]cn1)C(=O)N[C@@H](Cc1ccccc1)C(=O)N[C@@H](CCCCNC(=O)OCc1ccccc1)C(N)=O),8,,
Fmoc-YERF-NH2,60,,
Ac-YDRW-NH2,,43,
Myr-YERF-NH2 (Myristoyl-YERF-NH2),37,,
Ac-YERF-NH2,,93,inhibition of Gadd45β/MKK7 complex formation in ELISA competition assays (result in words): IC50s similar to those of DTPs
Ac-WDKW-NH2,,69,
Fmoc(βAla)2-YDHD-NH2 ({Fmoc-βAla-βAla}-YDHD-NH2; SMILES NC(=O)[C@H](CC(=O)O)NC(=O)[C@H](Cc1c[nH]cn1)NC(=O)[C@H](CC(=O)O)NC(=O)[C@H](Cc1ccc(O)cc1)NC(=O)CCNC(=O)CCNC(=O)OCC1c2ccccc2-c2ccccc21),,,% Inhibition of Gadd45β-MKK7 binding [3]: 0%
Fmoc(βAla)2-YDHH-NH2 ({Fmoc-βAla-βAla}-YDHH-NH2; SMILES NC(=O)[C@H](Cc1c[nH]cn1)NC(=O)[C@H](Cc1c[nH]cn1)NC(=O)[C@H](CC(=O)O)NC(=O)[C@H](Cc1ccc(O)cc1)NC(=O)CCNC(=O)CCNC(=O)OCC1c2ccccc2-c2ccccc21),,,% Inhibition of Gadd45β-MKK7 binding [3]: 40%
"CC(=O)NC(Cc1ccc(O)cc1)C(=O)NC(Cc1ccccc1)C(N)=O (stereo not drawn) [Compound A1, Ac-YF-NH2] (Ac-Tyr-Phe-NH2; configuration not given here)",,,"IC50 (Table VI, compounds 0.01-100 nM, read-out: IC50 Elisa): > 100 nM"
Myr-YDHQ-NH2 (Myristoyl-YDHQ-NH2),28,,
Fmoc(βAla)2-YDHP-NH2 ({Fmoc-βAla-βAla}-YDHP-NH2; SMILES NC(=O)[C@@H]1CCCN1C(=O)[C@H](Cc1c[nH]cn1)NC(=O)[C@H](CC(=O)O)NC(=O)[C@H](Cc1ccc(O)cc1)NC(=O)CCNC(=O)CCNC(=O)OCC1c2ccccc2-c2ccccc21),,,% Inhibition of Gadd45β-MKK7 binding [3]: 16%
Ac-PERF-NH2,24,,
